Data set [1] concerns the target His-MS2-MBP (MS2 coat protein fused to maltose binding protein) (bacteriophage MS2) (UniProt P03612). Nature of the data set: SPR. The settings on record: kon/koff fit, HBS-EP+; SPR: HBS-EP+ running buffer, Biacore X100, binding temperature not given; gel cleavage: 500 uM MgCl2, 150 mM NaCl, 1 mM DTT, 10 mM HEPES pH 7.4, 37 C. For orientation: In SPR one partner is held on a chip, and binding of the other changes the refractive index at the surface.

Data set [2] has the same target. As to the kind of experiment: ribozyme cleavage inhibition (gel). The following applies: SPR: HBS-EP+ running buffer, Biacore X100, binding temperature not given; gel cleavage: 500 uM MgCl2, 150 mM NaCl, 1 mM DTT, 10 mM HEPES pH 7.4, 37 C.

Chain of UniProt P03612 (P03612 whole entry, the tested form may be a part): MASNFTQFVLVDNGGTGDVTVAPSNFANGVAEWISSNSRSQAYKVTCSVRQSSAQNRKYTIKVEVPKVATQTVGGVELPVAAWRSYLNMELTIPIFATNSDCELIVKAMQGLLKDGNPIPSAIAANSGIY

What is called Kd is the constant that tells how readily two partners part at equilibrium. Lower therefore signals higher affinity. For the sequence “GCUGUCACCGGAAUCAAGGUCCGGUCUGAUGAGUCCGACCAUCAGGAGGACGAAACAGC [MS2-B3]”, the Kd in data set [1] was 296 nM.

The term IC50 denotes the concentration needed to halve the response being measured. On to “GCUGUCACCGGAAUCAAGGUCCGGUCUGAUGAGUCCGUUGUCCACCAUCAGGGGACGGGACGGAGGACGAAACAGC [MS2-A2]”, for which the Kd in data set [1] is 6.08 nM. In data set [2], this sequence gave an IC50 of 19 nM. For “GCUGUCACCGGAUGUGCUGCAGGAUCACCGCAUUUCCGGUCUGAUGAGUCCGUGAGGACGAAACAGC [MS2-B1]”, the Kd in data set [1] came out at 630 nM. As to “GCUGUCACCGGAUGUGCUUUCCGGUCUGAUGAGUCCGUGGUCCACCAUCAGGGGACUGGACUGAGGACGAAACAGC [MS2-A3]”, the Kd in data set [1] stood at 253 nM. “GCUGUCACCGGAUGUGCUUUCCGGUCUGAUGAGUCCGUUGCGUAGGAUCACCACGUGGCGCGGAGGACGAAACAGC [MS2-A8]” gave a Kd in data set [1] of 50 nM. Against the preceding sequence, the Kd is about 5.1-fold lower.

In data set [1], “GCUGUCACCGGAUGUGCUUUCCGGUCUGAUGAGUCCGUUGUCCAGGAUCACCGGACGGGACGGAGGACGAAACAGC [MS2-A1]” showed a Kd of 24.5 nM. The IC50 in data set [2] came to 63 nM.

“GCUGUCACCGGAUGUGCUUUCCGGUCUGAUGAGUCCGUUGUCCUAGGAUCACCAGGAAGGGACGGAGGACGAAACAGC [MS2-A7]” came in with a Kd in data set [1] of 279 nM. Consider “GCUGUCACCGGAUGUGGUUUCCGGUCUGAUGAGUCCGACCAUCAGGAGGACGAAACAGC [MS2-B2]”, for which, in data set [1], the Kd is 237 nM. “GCUGUCACCGGAUUCGGGAUCCGGUCUGAUGAGUCCGACCAUCAGGAGGACGAAACAGC [MS2-B4]” displayed a Kd in data set [1] of 224 nM. This Kd and that of the sequence before are within 1.5-fold of each other.

These data come from article PMC4231745.
